Biological target: the molecule itself
Experiment: SEC

B1: His-MBP-VWA (hCLCA1 von Willebrand factor type A domain construct, amino acids 240-544) (domain or fragment, human, UniProt A8K7I4 240-544, looked up)
chain: AQHVDSIVEFCTEQNHNKEAPNKQNQKCNLRSTWEVIRDSEDFKKTTPMTTQPPNPTFSLLQIGQRIVCLVLDKSGSMATGNRLNRLNQAGQLFLLQTVELGSWVGMVTFDSAAHVQNELIQINSGSDRDTLAKRLPAAASGGTSICSGLRSAFTVIRKKYPTDGSEIVLLTDGEDNTISGCFNEVKQSGAIIHTVALGPSAAQELEELSKMTGGLQTYASDQVQNNGLIDAFGALSSGNGAVSQRSIQLESKGLTLQNSQWMNGTVIVDSTVGKDTLFLITWTMQPPQILLWDPSGQKQGGFVV
stoichiometry N: 2

— PMC6444176 (Biochemistry and Biophysics Reports, 2019)
